Measurements reported in patent US10487307B2, “Culture method for pluripotent stem cells” (FUJIFILM CORPORATION, priority 2013, dated 2019).

How the values were obtained:
[1] = system: iPS cells; assay: Growth evaluation, growth curves over 8 days; format: cell-based, human
Description: The iPS cells collected in the same manner as in <Cell adhesiveness evaluation 1> were seeded into a 96-well plate, onto which RCP-1, RCP-21, and natural human vitronectin were adsorbed, at a ratio of 250 cells/well and cultured for 8 days in a 5% CO2 incubator at 37° C. The number of adhesive cells after different days of culture was measured in the same manner as in <Cell adhesiveness evaluation 1>, thereby obtaining growth curves. […] In FIG. 2, a black rhombus indicates a case using RCP-1, and a black square indicates a case using RCP-21.
From the increase and decrease in the obtained number of cells, the doubling time was calculated. As a result, it was confirmed that it takes 46.4±2.1 hours for the number of cells to be doubled in a case where RCP-1 is used, and 67.7±2.1 hours in a case where RCP-21 is used.

[2] = system: iPS cells; assay: Evaluation of maintenance of undifferentiated state (reference examples); format: cell-based, human
Description: iPS cells collected in the same manner as in <Cell adhesiveness evaluation 1> were suspended in TeSR2. The iPS cells were seeded into 6-well plate (Tissue culture-treated, Falcon), onto which each of the samples 1, 2, 5, 6, and 7 used in <Cell adhesiveness evaluation 1> was adsorbed in the same manner as in <Cell adhesiveness evaluation 1>, and cultured in a CO2 incubator at 37° C. Except for the day after the seeding, the medium was replaced every day. In the same method as described above, the cells were subcultured every six days.
After being cultured for 1 month under the conditions described above, the cells were immobilized using 4% paraformaldehyde and treated with 1% Triton-X/PBS so as to enhance the membrane permeability. After the cells were subjected to a blocking treatment using an Image IT Signal Enhancer (Invitrogen), an anti-human NANOG antibody (AF 1997, R&D Systems, Inc.), an Alexa Fluor 555 binding rabbit anti-goat IgG antibody (Invitrogen), and DAPI (4′,6-diamidino-2-phenylindole, Dojindo Molecular Technologies, Inc.) were added thereto for labeling, and the cells were imaged using a fluorescence microscope.
FIGS. 3A and 4A show the iPS cells cultured on RCP-1; FIGS. 3B and 4B show the iPS cells cultured on RCP-11; FIGS. 3C and 4C show the iPS cells cultured on natural human vitronectin; FIGS. 3D and 4D show the iPS cells cultured on rLaminin-5; and FIGS. 3E and 4E show the iPS cells cultured on rLaminin-511. The scale bar in the images indicates […]. In FIGS. 3A to 3E, the images on the left side are full images of the colony, and the images on the right side are magnified images. In FIGS. 4A to 4E, the images on the left side are images of the cells stained with DAPI, and the images on the right side are images of the cells stained with an anti-NANOG antibody. The scale bar in FIGS. 3A to 4E indicates 200 μm.

[3] = system: human iPS cells ("Tic"); assay: Cell adhesiveness evaluation 1 (ALP activity of adhesive iPS cells); format: cell-based; conditions: added amount 200 pmol/cm^2; 30,000 cells/well, 24 hours; natural vitronectin (sample 15) = 100%; n=3
Procedure, shortened: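 Peptides and controls were adsorbed onto wells for 2 h at 37 °C. Single-cell human iPS cells in TeSR2 with 10 μM Y-27362 were seeded at 30,000 cells/well. After 24 h, non-adherent cells were washed off and adherent cells fixed; cell number came from ALP activity via a calibration curve. Adhesion is expressed relative to natural vitronectin (100%), n=3.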

B1: RCP-21: comparative polypeptide, SEQ ID NO: 26; positions 1-459, having the sequence of human vitronectin (protein)
chain: GPLGDQESCKGRCTEGFNVDKKCQCDELCSYYQSCCTDYTAECKPQVTRGDVFTMPEDEYTVYDDGEEKNNATVHEQVGGPSLTSDLQAQSKGNPEQTPVLKPEEEAPAPEVGASKPEGIDSRPETLHPGRPQPPAEEELCSGKPFDAFTDLKNGSLFAFRGQYCYELDEKAVRPGYPKLIRDVWGIEGPIDAAFTRINCQGKTYLFKGSQYWRFEDGVLDPDYPRNISDGFDGIPDNVDAALALPAHSYSGRERVYFFKGKQYWEYQFQHQPSQEECEGSSLSAVFEHFAMMQRDSWEDIFELLFWGRTSAGTRQPQFISRDWHGVPGQVDAAMAGRIYISGMAPRPSLAKKQRFRHRNRKGYRSQRGHSRGRNQNSRRPSRATWLSLFSSEESNLGANNYDDYRMDWLVPATCEPIQSVFFFSGDKYYRVNLRTRRVDTVDPPYPRSIAQYWLGCPAPGHL
modifications: Vitronectin-derived Recombinant Protein (RCP-21)
doubling time ([1]; 250 cells/well, cultured for 8 days): 67.7 ± 2.1 h
number of cells on Day 8 of culture as fraction of the number with RCP-1 ([1]; FIG. 2): about ⅓
form of iPS cell colony ([2]; TeSR2, subcultured every six days, FIGS. 3A to 3E): form specific to undifferentiated cells
NANOG expression ([2]; cultured for 1 month in TeSR2, anti-NANOG staining, FIGS. 4A to 4E): strongly expressed NANOG in the entirety of the colony
Cell adhesion rate (%) [3]: 93.5 ± 7.9%
